Columns and labels:
[1] = biological target: T1, UPF1 (CH-helicase core) (Homo sapiens, UniProt Q92900 115-352+364-925, internal_change); assay: fluorescence anisotropy; 1 mM Mg2+; Fluorescence anisotropy: 20 mM HEPES pH 7.5, 100 mM NaCl, 1 mM MgCl2, 100 µg/ml BSA, 5 nM RNA, 25 °C, 1 h; one-site fit with Hill slope. SEC conditions not in the material; settings: protein: recombinant; tags: His6 or His-GST fusion, cleavable (TEV/3C); label: 5' 6-FAM; single strand
T1 sequence: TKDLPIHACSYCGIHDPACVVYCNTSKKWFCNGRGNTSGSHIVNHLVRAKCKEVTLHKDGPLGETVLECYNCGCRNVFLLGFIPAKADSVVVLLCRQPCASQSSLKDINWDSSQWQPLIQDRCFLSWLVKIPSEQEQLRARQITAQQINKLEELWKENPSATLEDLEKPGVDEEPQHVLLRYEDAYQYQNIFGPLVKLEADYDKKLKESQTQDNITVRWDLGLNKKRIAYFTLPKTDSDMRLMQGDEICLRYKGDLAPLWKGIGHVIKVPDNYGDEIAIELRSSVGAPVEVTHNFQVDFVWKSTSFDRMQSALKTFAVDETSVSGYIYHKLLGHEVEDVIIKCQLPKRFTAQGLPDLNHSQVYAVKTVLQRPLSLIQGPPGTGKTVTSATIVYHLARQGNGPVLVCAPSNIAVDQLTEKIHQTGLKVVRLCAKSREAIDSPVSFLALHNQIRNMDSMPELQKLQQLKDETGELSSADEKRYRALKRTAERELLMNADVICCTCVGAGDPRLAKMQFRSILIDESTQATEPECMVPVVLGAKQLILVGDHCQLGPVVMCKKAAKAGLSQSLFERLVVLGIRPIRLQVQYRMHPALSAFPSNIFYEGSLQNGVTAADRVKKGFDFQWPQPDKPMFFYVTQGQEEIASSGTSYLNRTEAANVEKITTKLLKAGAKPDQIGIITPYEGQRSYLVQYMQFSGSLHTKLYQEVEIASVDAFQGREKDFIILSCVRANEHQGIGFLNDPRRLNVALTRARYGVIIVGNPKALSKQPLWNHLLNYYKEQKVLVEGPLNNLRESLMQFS

[2] = biological target: Nfl (Nucleocapsid full-length) (SARS-CoV-2, UniProt P0DTC9 1-419); assay: as above; settings: protein: recombinant; tags: His6 or His-GST fusion, cleavable (TEV/3C); chain copies: 2; label: 5' 6-FAM; single strand

UUUUUUUUUUUU (ssRNA) [U12 (12-mer poly-U RNA)]
Kd [1]: ~50 nM | Kd [2]: 82 nM
